# Experimental data from patent US20240409599A1 (Genentech, published 2024).
# Changes are numbered by the printed parent chain. Names may count otherwise.
# T1: Human IL-18Rα extracellular domain (human, UniProt Q13478 22-329, biotinylated (site not stated))
# T1 construct: also called IL-18 receptor
# T1 sequence: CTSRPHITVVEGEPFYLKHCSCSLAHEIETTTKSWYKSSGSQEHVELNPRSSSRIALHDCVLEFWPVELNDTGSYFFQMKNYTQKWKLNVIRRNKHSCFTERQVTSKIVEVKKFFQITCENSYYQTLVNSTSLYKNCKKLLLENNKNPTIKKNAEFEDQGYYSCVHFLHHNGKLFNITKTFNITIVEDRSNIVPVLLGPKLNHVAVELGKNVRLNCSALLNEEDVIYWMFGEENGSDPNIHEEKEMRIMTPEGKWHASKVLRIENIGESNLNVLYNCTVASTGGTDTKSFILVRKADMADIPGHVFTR
# T2: Mouse IL-18BP (isoform D) (mouse, UniProt Q9Z0M9 29-193, biotinylated (site not stated))
# T2 sequence: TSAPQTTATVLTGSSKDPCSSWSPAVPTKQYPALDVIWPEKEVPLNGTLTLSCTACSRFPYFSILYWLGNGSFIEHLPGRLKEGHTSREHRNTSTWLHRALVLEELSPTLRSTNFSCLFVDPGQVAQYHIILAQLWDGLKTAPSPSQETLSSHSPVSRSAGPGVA
# T3: Human IL-18BP (isoform A) (human, UniProt O95998 31-194, biotinylated (site not stated))
# T3 construct: also called decoy receptor
# T3 sequence: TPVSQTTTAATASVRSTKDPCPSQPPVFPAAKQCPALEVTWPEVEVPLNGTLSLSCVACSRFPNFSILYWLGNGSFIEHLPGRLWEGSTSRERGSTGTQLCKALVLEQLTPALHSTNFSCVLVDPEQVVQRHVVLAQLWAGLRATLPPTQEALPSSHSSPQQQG
# T4: Mouse IL-18Rα extracellular domain (mouse, UniProt Q61098 20-326, biotinylated (site not stated))
# T4 sequence: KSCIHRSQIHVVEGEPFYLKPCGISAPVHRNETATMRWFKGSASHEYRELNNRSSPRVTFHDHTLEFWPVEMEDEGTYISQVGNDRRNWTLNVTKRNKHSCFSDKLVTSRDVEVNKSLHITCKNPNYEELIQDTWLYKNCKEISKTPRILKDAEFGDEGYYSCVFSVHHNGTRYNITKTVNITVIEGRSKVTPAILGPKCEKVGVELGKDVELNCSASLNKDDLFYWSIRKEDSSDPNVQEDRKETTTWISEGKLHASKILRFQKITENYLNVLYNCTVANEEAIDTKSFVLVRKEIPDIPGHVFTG
# B1: Human IL-18 N50C (ligand)
# chain: YFGKLESKLSVIRCLNDQVLFIDQGNRPLFEDMTDSDSRDNAPRTIFIISMYKDSQPRGMAVTISVKSEKISTLSSENKIISFKEMNPPDNIKDTKSDIIFFQRSVPGHDNKMQFESSSYEGYFLACEKERDLFKLILKKEDELGDRSIMFTVQNED
# notes: Made in mammalian cells
# B2: Human IL-18 N50C/L174C (ligand)
# chain: B1 chain with S76C, L138C
# notes: Made in mammalian cells
# B3: Mouse wild-type mature IL-18 (ligand)
# chain: NFGRLHCTTAVIRNINDQVLFVDKRQPVFEDMTDIDQSASEPQTRLIIYMYKDSEVRGLAVTLSVKDSKMSTLSCKNKIISFEEMDPPENIDDIQSDLIFFQKRVPGHNKMEFESSLYEGHFLACQKEDDAFKLILKKKDENGDKSVMFTLTNLHQS
# notes: also called Mouse WT; mouse mature IL-18
# B4: Mouse IL-18 A159C/V182C (ligand)
# chain: B3 chain with C7S, C75S, A124C, C125S, V147C
# B5: Mouse IL-18 T44C/L189C (ligand)
# chain: B3 chain with C7S, T9C, C75S, C125S, L154C
# notes: Made in mammalian cells
# B6: Human IL-18 A162C/I185C (ligand)
# chain: B1 chain with C14N, A126C, C127S, I149C
# notes: Made in mammalian cells
# B7: Human IL-18 I107C/N123C (ligand)
# chain: B1 chain with C14N, I71C, N87C, C127S
# notes: Made in mammalian cells
# B8: Human IL-18 L174C (ligand)
# chain: B1 chain with C14N, S76C, C127S, L138C
# notes: Made in mammalian cells
# B9: Human IL-18 S43C/S86C (ligand)
# chain: B1 chain with S7C, C14N, S50C, C127S
# notes: Made in mammalian cells
# B10: Human IL-18 Y37C/S91C (ligand)
# chain: B1 chain with Y1C, C14N, S55C, C127S
# notes: Made in mammalian cells
# B11: Human IL-18 S46C/I85C (ligand)
# chain: B1 chain with S10C, C14N, I49C, C127S
# notes: Made in mammalian cells
# B12: Human IL-18 hCS (ligand)
# chain: B1 chain with C14N, C127S
# B13: Human IL-18 S101C/T109C (ligand)
# chain: B1 chain with C14N, S65C, T73C, C127S
# notes: Made in mammalian cells
# B14: Human IL-18 T99C/P124C (ligand)
# chain: B1 chain with C14N, T63C, P88C, C127S
# notes: Made in mammalian cells
# B15: Human IL-18 L45C/E192C (ligand)
# chain: B1 chain with L9C, C14N, C127S, E156C
# notes: Made in mammalian cells
# B16: Human IL-18 F57C/T81C (ligand)
# chain: B1 chain with C14N, F21C, T45C, C127S
# notes: Made in mammalian cells
# B17: Human IL-18 S46C/V189C (ligand)
# chain: B1 chain with S10C, C14N, C127S, V153C
# notes: Made in mammalian cells
# Molecular target: T1, Human IL-18Rα extracellular domain
# Assay: SPR, Biacore 8K, 37 C, biotinylated target on SA chip
# Description: (§1) SPR experiments were performed using a Biacore 8K (Cytiva) at a temperature of 37° C. Biotinylated human or mouse IL-18Rα and IL-18BP were immobilized onto Biacore streptavidin sensor chip (Series S Sensor Chip SA, Cytiva) to yield an Rmax ≤50 RU. Measurements were made with five, three-fold dilutions into HBS-P+ buffer (10 mM HEPES pH 7.4, 150 mM NaCl, 0.005% surfactant P20). Interactions were evaluated using the single-cycle kinetics method and analyzed with the Biacore 8K evaluation software and fit to a 1:1 binding model.
# (§2) A subset of variants were selected for analyses of binding kinetics to the L-18 receptor, IL-IM, and the decoy receptor, L-18BP, by surface plasmon resonance (SPR) (Table 8). With two exceptions, all kinetics constants are within an order of magnitude of wild-type IL-18.
row,Binder,binding result
1,B1,no binding (tested: up to 81 nM)
2,B2,no binding (tested: up to 81 nM)

# Molecular target: T2, Mouse IL-18BP (isoform D)
# Assay: SPR, Biacore 8K, 37 C, biotinylated target on SA chip, single-cycle kinetics
# Description: as §1, §2
Binder,kon,Kd,koff
B3,650000 M⁻¹ s⁻¹,,
B4,2.23e+06 M⁻¹ s⁻¹,14 pM,3.2e-05 s⁻¹
B5,2e+06 M⁻¹ s⁻¹,5 pM,1.1e-05 s⁻¹

# Molecular target: T3, Human IL-18BP (isoform A)
# Assay: as above
# Description: as §1, §2
Binder,Kd,koff,kon
B6,6.5 pM,1.89e-05 s⁻¹,2.91e+06 M⁻¹ s⁻¹
B7,7 pM,2.1e-05 s⁻¹,2.9e+06 M⁻¹ s⁻¹
B8,7 pM,2.1e-05 s⁻¹,2.93e+06 M⁻¹ s⁻¹
B9,9 pM,3.2e-05 s⁻¹,3.4e+06 M⁻¹ s⁻¹
B10,70 pM,0.00018 s⁻¹,2.6e+06 M⁻¹ s⁻¹
B11,35 pM,0.00012 s⁻¹,3.3e+06 M⁻¹ s⁻¹
B1,6.2 pM,2.6e-05 s⁻¹,4.22e+06 M⁻¹ s⁻¹
B12,35 pM,4.9e-05 s⁻¹,1.4e+06 M⁻¹ s⁻¹
B13,11 pM,2.4e-05 s⁻¹,2.3e+06 M⁻¹ s⁻¹
B14,8 pM,2.5e-05 s⁻¹,3e+06 M⁻¹ s⁻¹
B2,14 pM,4.8e-05 s⁻¹,3.6e+06 M⁻¹ s⁻¹
B15,15 pM,3.1e-05 s⁻¹,2.1e+06 M⁻¹ s⁻¹
B16,7 pM,2.2e-05 s⁻¹,3.4e+06 M⁻¹ s⁻¹
B17,18 pM,4.3e-05 s⁻¹,2.3e+06 M⁻¹ s⁻¹

# Molecular target: T1, Human IL-18Rα extracellular domain
# Assay: as above
# Description: as §1, §2
Binder,Kd,koff,kon
B6,68100 pM,0.212 s⁻¹,3.11e+06 M⁻¹ s⁻¹
B7,14700 pM,0.031 s⁻¹,2.1e+06 M⁻¹ s⁻¹
B8,32800 pM,0.011 s⁻¹,350000 M⁻¹ s⁻¹
B9,54500 pM,0.0241 s⁻¹,440000 M⁻¹ s⁻¹
B12,1700 pM,5.6e-05 s⁻¹,32000 M⁻¹ s⁻¹
B13,147000 pM,0.042 s⁻¹,280000 M⁻¹ s⁻¹
B14,64400 pM,0.032 s⁻¹,500000 M⁻¹ s⁻¹
B15,58700 pM,0.028 s⁻¹,470000 M⁻¹ s⁻¹
B17,147000 pM,0.054 s⁻¹,360000 M⁻¹ s⁻¹

# Molecular target: T4, Mouse IL-18Rα extracellular domain
# Assay: as above
# Description: as §1, §2
Binder,Kd,koff,kon
B3,1270 pM,0.0097 s⁻¹,7.6e+06 M⁻¹ s⁻¹
B4,1110 pM,0.0077 s⁻¹,7e+06 M⁻¹ s⁻¹
B5,5200 pM,0.04 s⁻¹,7.6e+06 M⁻¹ s⁻¹
